Here are results for 3 molecules from PMC6279937, “Biochemical Characterization of Aspergillus fumigatus AroH, a Putative Aromatic Amino Acid Aminotransferase” (Frontiers in Molecular Biosciences, 2018).

For orientation: Kd means the constant that tells how readily two partners part at equilibrium. A word on the stoichiometry N: it is the number of molecules, sites or subunits per partner or assembly. One may read the Km as the substrate concentration at which the rate is half of its maximum. Broadly, the kcat is the maximal rate divided by the concentration of active sites. A word on the kcat/Km: it is the turnover number divided by the Michaelis constant.

The target of data set [1] is T1, AroH (Aspergillus fumigatus, UniProt Q4X0F7).
T1 construct: gene AFUA_2G13630; entire AroH cDNA with C-terminal 6xHis tag (kept) in pET22b, synthesized by GenScript, expressed in E. coli BL21(DE3); subunit mass 59480 Da; homodimer with 1 PLP per subunit
T1 sequence (Q4X0F7 1-526): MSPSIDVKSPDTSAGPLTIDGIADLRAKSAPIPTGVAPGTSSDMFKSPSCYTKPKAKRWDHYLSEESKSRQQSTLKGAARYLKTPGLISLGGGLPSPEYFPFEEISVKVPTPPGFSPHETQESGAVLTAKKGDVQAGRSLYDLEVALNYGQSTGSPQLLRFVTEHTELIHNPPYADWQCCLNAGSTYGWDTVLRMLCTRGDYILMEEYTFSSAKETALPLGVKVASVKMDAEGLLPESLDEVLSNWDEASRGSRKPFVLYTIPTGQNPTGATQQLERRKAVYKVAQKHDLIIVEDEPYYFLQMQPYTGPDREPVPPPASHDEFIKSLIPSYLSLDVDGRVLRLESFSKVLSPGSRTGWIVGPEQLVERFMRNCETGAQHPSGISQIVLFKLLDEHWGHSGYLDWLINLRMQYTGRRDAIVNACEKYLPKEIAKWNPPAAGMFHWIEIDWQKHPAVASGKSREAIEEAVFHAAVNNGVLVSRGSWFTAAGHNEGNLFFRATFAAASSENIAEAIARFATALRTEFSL
The experiment in a line: intrinsic fluorescence quenching of apoenzyme, tight-binding fit. The conditions noted are these: read-out: KD(PLP).

Data set [2] concerns the target Aspergillus fumigatus AroH, recombinant, with a C-terminal 6xHis tag (Aspergillus fumigatus). The experiment in a line: SEC; 5 uM holoAroH on Superdex 200 10/300 GL, 0.1 M potassium phosphate pH 7.4, 0.5 ml/min; elution volume compared with molecular weight standards.
Substrate in data set [3]: O=C(O)CCC(=O)C(=O)O
The experiment in a line: purified protein. It is filed as biochemical, Aspergillus fumigatus. The conditions noted are these: co-substrate 20 mM L-tryptophan, 100 μM PLP, 66 mM potassium phosphate pH 8.2, 25°C, pH 8.2.

Substrate in data set [4]: N[C@@H](CCCC(=O)O)C(=O)O
Kind of data set: purified protein. The conditions noted are these: co-substrate α-ketoglutarate, 100 μM PLP, 66 mM potassium phosphate pH 7.4. It is filed as biochemical, Aspergillus fumigatus.

Substrate in data set [5]: N[C@@H](Cc1ccc(O)cc1)C(=O)O
Kind of data set: purified protein. As to conditions: co-substrate 1 mM α-ketoglutarate, 100 μM PLP, 66 mM potassium phosphate pH 8.2, 25°C, pH 8.2. It is filed as biochemical, Aspergillus fumigatus.

Substrate in data set [6]: O=C(O)CCCC(=O)C(=O)O
Kind of data set: purified protein. It is filed as biochemical, Aspergillus fumigatus. The conditions noted are these: co-substrate L-glutamate, 100 μM PLP, 66 mM potassium phosphate pH 7.4.

Substrate in data set [7]: N[C@@H](Cc1c[nH]c2ccccc12)C(=O)O
The experiment in a line: purified protein. In kind it is biochemical, Aspergillus fumigatus. The conditions noted are these: co-substrate 1 mM α-ketoglutarate, 100 μM PLP, 66 mM potassium phosphate pH 8.2, 25°C, pH 8.2.

Substrate in data set [8]: Nc1ccccc1C(=O)C[C@H](N)C(=O)O
Kind of data set: purified protein. As to conditions: co-substrate α-ketoglutarate, 100 μM PLP, 66 mM potassium phosphate pH 7.4. In kind it is biochemical, Aspergillus fumigatus.

Substrate in data set [9]: N[C@@H](CCC(=O)O)C(=O)O
Kind of data set: purified protein. It is filed as biochemical, Aspergillus fumigatus. The conditions noted are these: co-substrate α-ketoadipate, 100 μM PLP, 66 mM potassium phosphate pH 7.4.

Substrate in data set [10]: N[C@@H](Cc1ccccc1)C(=O)O
Kind of data set: purified protein. It is filed as biochemical, Aspergillus fumigatus. As to conditions: co-substrate 1 mM α-ketoglutarate, 100 μM PLP, 66 mM potassium phosphate pH 8.2 (Figure 5 legend says pH 7.4), 25°C.

Take `Cc1ncc(COP(=O)(O)O)c(C=O)c1O` [PLP]: the Kd in [1] amounted to 0.1 ± 0.02 µM.

Regarding “Aspergillus fumigatus AroH, recombinant, with a C-terminal 6xHis tag (enzyme)”, the stoichiometry N in [2] came to 2.

B1: AroH (Aspergillus fumigatus Af293) (protein)
chain: MSPSIDVKSPDTSAGPLTIDGIADLRAKSAPIPTGVAPGTSSDMFKSPSCYTKPKAKRWDHYLSEESKSRQQSTLKGAARYLKTPGLISLGGGLPSPEYFPFEEISVKVPTPPGFSPHETQESGAVLTAKKGDVQAGRSLYDLEVALNYGQSTGSPQLLRFVTEHTELIHNPPYADWQCCLNAGSTYGWDTVLRMLCTRGDYILMEEYTFSSAKETALPLGVKVASVKMDAEGLLPESLDEVLSNWDEASRGSRKPFVLYTIPTGQNPTGATQQLERRKAVYKVAQKHDLIIVEDEPYYFLQMQPYTGPDREPVPPPASHDEFIKSLIPSYLSLDVDGRVLRLESFSKVLSPGSRTGWIVGPEQLVERFMRNCETGAQHPSGISQIVLFKLLDEHWGHSGYLDWLINLRMQYTGRRDAIVNACEKYLPKEIAKWNPPAAGMFHWIEIDWQKHPAVASGKSREAIEEAVFHAAVNNGVLVSRGSWFTAAGHNEGNLFFRATFAAASSENIAEAIARFATALRTEFSL
notes: entire AroH cDNA with C-terminal 6xHis tag (kept) in pET22b, synthesized by GenScript, expressed in E. coli BL21(DE3); subunit mass 59480 Da; homodimer with 1 PLP per subunit
B1: the Km in [3] was 180 ± 20 µM; in data set [4], 3300 ± 400 µM; in [5], 500 ± 100 µM; in data set [6], 140 ± 30 µM; in [7], 2100 ± 300 µM; in data set [8] it was 9000 ± 2000 µM. For the same molecule, the Km in [9] was 10000 ± 1000 µM; in data set [10], 1400 ± 200 µM. The kcat amounted to 2.5 ± 0.1 s⁻¹ in data set [3]; 13.2 ± 0.5 s⁻¹ in [4]; 4 ± 0.3 s⁻¹ in data set [5]; 12.5 ± 1 s⁻¹ in [6]; 3 ± 0.1 s⁻¹ in data set [7]; 4.1 ± 0.4 s⁻¹ in data set [8]. Further, the results for the turnover number (kcat) in [9] and in data set [10] were 10.3 ± 0.3 s⁻¹ and 7.4 ± 0.2 s⁻¹, respectively. Further, the kcat/Km in [3] turned out to be 14000 ± 2000 M⁻¹ s⁻¹; in [4] it was 4000 ± 400 M⁻¹ s⁻¹; in data set [5], 8000 ± 2000 M⁻¹ s⁻¹; in [6] it was 90000 ± 20000 M⁻¹ s⁻¹; in data set [7], 1400 ± 200 M⁻¹ s⁻¹; in [8], 400 ± 100 M⁻¹ s⁻¹. Moreover, the specificity constant (kcat/Km) in [9] is 960 ± 80 M⁻¹ s⁻¹; in data set [10], 5200 ± 600 M⁻¹ s⁻¹.
